In US20230025129A1 (KYMAB, published 2023):
Substitutions are numbered along the chain they refer to. Names may count otherwise.

T1: human matriptase-2 mask ECD protein his tag (human, UniProt Q8IU80 78-576)
T1 construct: MTP-2 ECD without the serine protease domain, with C-terminal linker and His tag; also called headless huMTP-2 ECD 78-576 aa; headless human MTP-2 ECD
T1 sequence: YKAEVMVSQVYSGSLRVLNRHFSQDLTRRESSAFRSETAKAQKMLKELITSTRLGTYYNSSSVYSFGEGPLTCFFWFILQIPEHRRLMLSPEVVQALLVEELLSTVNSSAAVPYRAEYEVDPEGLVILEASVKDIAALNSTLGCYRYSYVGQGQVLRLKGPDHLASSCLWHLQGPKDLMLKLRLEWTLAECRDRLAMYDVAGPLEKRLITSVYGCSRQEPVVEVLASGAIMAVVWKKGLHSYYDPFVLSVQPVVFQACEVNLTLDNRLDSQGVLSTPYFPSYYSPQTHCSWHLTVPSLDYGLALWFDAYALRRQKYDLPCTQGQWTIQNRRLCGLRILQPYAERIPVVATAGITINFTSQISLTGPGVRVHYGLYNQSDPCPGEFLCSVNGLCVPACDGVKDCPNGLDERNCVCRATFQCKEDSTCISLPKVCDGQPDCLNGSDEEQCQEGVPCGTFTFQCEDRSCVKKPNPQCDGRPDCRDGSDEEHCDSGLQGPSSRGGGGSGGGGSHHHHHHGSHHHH

T2: mouse matriptase-2 ECD protein his tag (mouse, UniProt Q9DBI0 80-811)
T2 construct: aa 80-811 of Q9DBI0 with C-terminal linker and His tag; also called mouse MTP-2 ECD; moMTP-2
T2 sequence: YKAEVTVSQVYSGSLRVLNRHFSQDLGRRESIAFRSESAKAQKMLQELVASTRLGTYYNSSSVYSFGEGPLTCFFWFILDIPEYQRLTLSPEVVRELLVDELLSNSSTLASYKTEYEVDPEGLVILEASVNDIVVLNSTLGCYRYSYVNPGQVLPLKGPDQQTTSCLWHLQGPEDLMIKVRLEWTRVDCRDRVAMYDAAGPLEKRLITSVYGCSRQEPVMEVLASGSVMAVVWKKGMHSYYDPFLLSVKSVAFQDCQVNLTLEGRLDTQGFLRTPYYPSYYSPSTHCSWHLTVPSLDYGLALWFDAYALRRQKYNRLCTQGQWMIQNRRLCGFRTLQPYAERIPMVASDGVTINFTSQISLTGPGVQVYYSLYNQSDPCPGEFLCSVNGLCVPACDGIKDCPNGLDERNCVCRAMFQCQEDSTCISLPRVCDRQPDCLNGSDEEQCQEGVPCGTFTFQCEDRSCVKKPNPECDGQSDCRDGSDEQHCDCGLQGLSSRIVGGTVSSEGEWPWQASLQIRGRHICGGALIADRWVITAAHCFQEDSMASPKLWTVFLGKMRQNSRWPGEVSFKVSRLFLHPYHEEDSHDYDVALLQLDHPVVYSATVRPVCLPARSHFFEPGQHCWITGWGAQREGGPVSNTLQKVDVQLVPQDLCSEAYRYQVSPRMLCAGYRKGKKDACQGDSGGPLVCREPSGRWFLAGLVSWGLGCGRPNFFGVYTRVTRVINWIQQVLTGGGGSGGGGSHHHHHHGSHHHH

B1: NORI-006 (antibody, human IgG4 S228P, kappa, V domains shown)
VH: EVQLVESGGGLIKPGRSLRLSCTGSGFTFGDFGLSWFRQAPGKGLEWISFIRSKPYGGTTDYAASVKGRFTISRDDSKNVAYLQMNSLKTEDTAVYYCARNEILTGYYIFDYWGQGTLVTVSS
VL: DIQMTQSPSSLSASLGDRVTITCQASQDINNYLNWYQVQPGKAPKLLIFDASILETGVPSRFSGSGSGTDFSFTISSLQPEDIATYYCQQYDNLPLTFGGGTKVDFKR
notes: human IgG4PE, kappa
B2: NORI-003 (antibody, human IgG4 S228P, kappa, V domains shown)
VH: EVQLVESGGGLVKPGRSLRLSCTGSGFTFGDFGMSWFRQAPGKGLEWVGFIRSKPYGGTTDYAPSVRGRFSISRDDSKGIVYLQMNSLRTEDTAVYYCSRNEILTGYYIFDYWGQGTLVTVSS
VL: B1 VL with Q27H, N30T, N34I, V38Q, Q39K, K45R, S72T, I83F, D92Y, F106I
notes: human IgG4PE, kappa; NORI-002 with the free cysteine of the VH domain mutated (printed as 'C49C')
B3: NORI-013 (antibody, human IgG4 S228P, lambda, V domains shown)
VH: EVQLVESGGGLIQAGRSLRLSCAASGFTFDEHVIYWVRQIPGKGLEWISSISWKSDIIAYADSVKGRFTISRDNAKNALYLQMNSLRAEDTALYYCAREKDGDFYYYYFAMDVWGQGTTVTVSS
VL: QSALTQPPSASGSPGQSVTLSCTGTSSDVGYYNYVSWYLQHPGKAPKLMIYEVSKRPSGVPDRFSGSKSANTASLTVSGLQAEDEADYYCSSYAGSNKVVFGGGTKVTVLG
notes: human IgG4PE, lambda
B4: NORI-014 (antibody, human IgG4 S228P, lambda, V domains shown)
VH: B3 VH with I34M, S52T
VL: B3 VL
notes: human IgG4PE, lambda
B5: NORI-008 (antibody, human IgG4 S228P, kappa, V domains shown)
VH: QVQLQESGPGLVKPSETLSLTCSVSGGSVSSGRYYWTWIRQPPGKGLEWIGYISNSGNTNYNPSLKSRVTISLDTSKKQFSLSLSAVTAADTAVYYCARGFIYDYWFDPWGQGSLVTVSS
VL: DSQMTQSPSSLSASVGDRVTITCQASQDIDNYLNWYQQRPGKAPKLLIYDASKLETGVPSRFSGSGSGTDFTFTISSLQPEDFATYYCQQYGNLPITFGQGTRLDIKR
notes: human IgG4PE, kappa, in the in vitro assays; a mouse IgG1 format was used in one in vivo study only; also called NORI-008 hulgG4PE; NORI-008 IgG
B6: NORI-011 (antibody, human IgG4 S228P, lambda)
heavy: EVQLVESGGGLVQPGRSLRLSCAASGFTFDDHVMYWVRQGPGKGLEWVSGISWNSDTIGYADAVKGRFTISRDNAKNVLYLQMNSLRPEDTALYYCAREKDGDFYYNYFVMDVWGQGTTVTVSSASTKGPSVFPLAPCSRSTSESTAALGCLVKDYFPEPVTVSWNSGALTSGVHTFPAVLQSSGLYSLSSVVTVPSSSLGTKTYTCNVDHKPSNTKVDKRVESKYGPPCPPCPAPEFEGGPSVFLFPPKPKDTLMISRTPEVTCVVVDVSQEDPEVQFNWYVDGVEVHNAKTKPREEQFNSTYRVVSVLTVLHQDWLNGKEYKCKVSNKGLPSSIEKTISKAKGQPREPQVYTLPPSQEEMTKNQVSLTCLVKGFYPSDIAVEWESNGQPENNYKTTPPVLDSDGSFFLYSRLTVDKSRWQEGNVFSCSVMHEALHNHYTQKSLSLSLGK
light: QSALTQPPSASGSPGQSVTISCTGTSSDVGFYNFVSWYQQHPDKAPKVMIYEVSKRPSGVPDRFSGSKSGNTASLTVSGLQAEDEADYYCSSYAGSNKVVFGGGTKLTVLGQPKAAPSVTLFPPSSEELQANKATLVCLISDFYPGAVTVAWKADSSPVKAGVETTTPSKQSNNKYAASSYLSLTPEQWKSHRSYSCQVTHEGSTVEKTVAPTECS
notes: human IgG4PE, lambda; NORI-010 with a P124S mutation in the VH domain

Legend:
[1] = biological target: T1, human matriptase-2 mask ECD protein his …; experiment: SPR (Table W)
Method: (§1) Off-rate screening was performed by surface plasmon resonance (SPR), using a Biacore 8K system (GE Healthcare). Anti-human Fc mix (˜1000 RU) were immobilised in both active and reference channels in HBS-P+ buffer (GE BR100671) pH 7.4. Anti-MTP-2 hulgG4PE antibodies were then captured for 60 sec at 10 μl/min at 1 μg/ml concentration (approximatively 35 and 50 RU were captured) only on the active channel. MTP-2 ECD protein analytes were then injected (at 100, 25, 6.25, 1.56 and 0 nM concentrations) for 120 sec (association time) at 30 μl/min and dissociation monitored for 600 sec. Multiple cycle kinetics mode was used with all 8 channels being used. Reference and background were subtracted from the sensorgrams for each antibody and data was fitted using a 1:1 interaction model in the Biacore evaluation software. Rmax, ka, kd globally fitted, RI=0.
NORI-011, NORI-008, NORI-003 and NORI-006 were all found to have cross-reactive binding to human, mouse, cyno and rat MTP-2 ECD proteins. […] The true KD value for NORI-008 could not be measured accurately for human or mouse MTP-2 due to a very slow off-rate.

[2] = biological target: T2, mouse matriptase-2 ECD protein his tag; experiment: SPR (Biacore 8K), huIgG4PE captured on anti-human Fc, MTP-2 ECD as analyte, 1:1 fit; true KD could be < the value shown
Method: as §1

[3] = biological target: T1, human matriptase-2 mask ECD protein his …; experiment: SPR, antibody captured, headless ECD as analyte
Method: as §1
Binding was also assessed using the above SPR method with “headless” huMTP-2 ECD 78-576 aa instead of the full ECD. Headless ECD corresponds to the MTP-2 ECD without the serine protease domain.

[4] = biological target: T2, mouse matriptase-2 ECD protein his tag; experiment: SPR (Biacore 8K), huIgG4PE captured on anti-human Fc, MTP-2 ECD as analyte, 1:1 fit; off-rate too slow to be determined
Method: as §1

[5] = biological target: T2, mouse matriptase-2 ECD protein his tag; experiment: HTRF competition with 647-labelled aprotinin for mouse MTP-2 protein
Description: Aprotinin is a pan serine protease inhibitor and is known to occupy the active site of serine proteases. A HTRF competition assay against labelled aprotinin confirmed that NORI-003, NORI-006, NORI-008 and NORI-011 were binding at or near this same site and competed with aprotinin for binding to human MTP-2 protein. […] This was confirmed by their lack of competition of aprotinin against moMTP-2 while IC50 values in the enzymatic assay were similar to those of NORI-011. […] FIG. 8. Table L.
Antibodies were titrated into HTRF buffer (DPBS (Gibco—14190144) with 0.1% BSA (Sigma—A7906) and potassium fluoride 0.53M (Sigma—60240-250 G)) at 4× conc with a starting concentration of 200 nM. 5 μL/w of antibodies were added to 384-well white plates (Greiner—784904). Purified proteins of huMTP-2 and moMTP-2 were diluted into HTRF buffer (huMTP-2=40 nM and moMTP-2=240 nM) 4× final conc and plate 5 μL/w. Anti-MTP-2 mAb (NORI-037) in molgG1 backbone was then diluted to 1.2 nM 4× final conc with DELFIA Eu-N1 Rabbit Anti-Mouse-IgG antibody (AD0207) at a 1:1000 dilution 4× final conc in HTRF buffer. Finally, dilute 647-labelled Aprotinin (Sigma—A3428) in HTRF buffer to 20 nM 4× final conc and plate 5 μL/w. Incubate plates for 3 hours or more at RT in the dark. Read plate using HTRF 100 flashes protocol on the EnVision plate reader at 1H 2H and 3H. (Ex: 340 nm Em1: 620 nm Em2: 665 nm).

Binder	binding result [1]	Kd [2]	binding result [3]	koff [4]	IC50 [5]
B1	no binding	–	–	–	–
B2	no binding	–	–	–	–
B3	–	≤ 0.949 nM	no binding (tested: analyte up to 100 nM)	≤ 1e-05 s⁻¹	–
B4	–	≤ 0.83 nM	no binding (tested: analyte up to 100 nM)	≤ 1e-05 s⁻¹	–
B5	no binding	–	–	–	1.42 nM
B6	no binding	–	–	–	120 nM
